Source: patent US20240002500A1 (GUANGDONG FAPON BIOPHARMA, published 2024)

How the values were obtained:
[1] = target: T1, full-length cynoTIGIT on CHO cells (monkey (cyno), UniProt A0A7N9I9V4 89-312); experiment: FACS titration on CHO-cynoTIGIT cells, PE goat anti-mouse IgG
T1 construct: whole, on cells; also called CHO-cynoTIGIT; monkey TIGIT
Experimental: In order to verify that the anti-human TIGIT antibody binds to a monkey TIGIT, the following experiments were specifically performed. The CHO-engineered cell CHO-cynoTIGIT cells recombinantly expressing full-length […] cynoTIGIT were counted; centrifugated at 300 g for 5 min; resuspended with an FCM buffer; and cell density was adjusted to 4E+06 cell/mL for later use.
Samples to be detected (including a positive control antibody and a mouse monoclonal antibody) were diluted with the FCM buffer to 20 μg/mL, and then the FCM buffer was used to perform 3× serial dilutions of 12 concentration points; and an isotype control antibody was diluted with the FCM buffer to 20 μg/mL. According to an experimental design, in each well, 50 μL of the antibody and 50 μL of the cell (the volume of each cell added into a 96-well V-shaped plate being 2E+05 cell/well) were respectively added in the 96-well V-shaped plate; and incubation was performed in dark on ice for 30 min. Centrifugation (300 g/5 min) was performed; supernatant was discarded; 200 μL of the FCM buffer was added for washing once; centrifugation (300 g/5 min) was performed; and the supernatant was discarded. […] Centrifugation (300 g/5 min) was performed; supernatant was discarded; 200 μL of the FCM buffer was added for washing once; centrifugation (300 g/5 min) was performed; and the supernatant was discarded. 100 μL of the 1×PBS was added for resuspending, and on-machine detection was performed.

[2] = target: T2, human Tigit extracellular domain recombinant protein hTigit-his (Acrobiosystem, Cat.TIT-H2H3) (human, UniProt Q495A1 22-141); experiment: BLI epitope binning (ForteBIO QKe), hTigit-his on anti-Penta-HIS sensor; competitor R0223
T2 construct: extracellular domain; Bought; not shown: his tag
T2 sequence (looked up): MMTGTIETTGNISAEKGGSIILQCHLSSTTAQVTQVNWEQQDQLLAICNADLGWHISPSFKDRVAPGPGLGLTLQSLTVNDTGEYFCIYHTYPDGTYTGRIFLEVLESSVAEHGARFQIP
Experimental: Epitope competition analysis was performed on an anti-human TIGIT antibody with an MD ForteBIO QKe platform. An experimental method included: a human Tigit extracellular domain recombinant protein hTigit-his (Acrobiosystem, Cat.TIT-H2H3, lot-1336-76GF1-F9) carrying a his tag was diluted with an equilibration buffer (1×PBS+0.02% Tween 20), until the final concentration was 1.5 μg/ml. The anti-human Tigit antibody was diluted with the equilibration buffer (1×PBS+0.02% Tween 20), the final concentration being 5 μg/ml. After an anti-Penta-HIS biosensor (ForteBIO, Cat. 18-5122) was fully hydrated, first the hTigit-his recombinant protein was solidified for 180 seconds, then equilibrated for 30 seconds, and bound to the first anti-human Tigit antibody for 180 seconds, then equilibrated for 30 seconds, and then bound to the second anti-human Tigit antibody, binding time being 300 seconds. The whole reaction was performed at 25° C. and 1000 rpm; and finally, Octet analysis software was used to perform epitope binning analysis.

hTIGIT-hFc = target: T3, hTIGIT-hFc (human, UniProt Q495A1 22-141); experiment: FACS blocking: antibody preincubated with hTIGIT-hFc, then CHO-hPVR cells, PE anti-human IgG Fc; blocked partner PVR on cells
T3 construct: also called antigen protein hTIGIT-hFc; human TIGIT recombinant protein carrying a human Fc tag; not shown: human Fc tag
T3 sequence (looked up): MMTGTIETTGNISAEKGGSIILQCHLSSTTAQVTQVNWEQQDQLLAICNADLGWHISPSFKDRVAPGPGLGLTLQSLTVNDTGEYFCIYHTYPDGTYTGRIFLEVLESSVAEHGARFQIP
Experimental: The CHO-engineered cells CHO-hPVR cells recombinantly expressing full-length human PVR were counted centrifugated at 300 g for 5 min, resuspended with an FCM buffer, the cells were added to the 96-well V-shaped plate; the volume of each cell added into a 96-well V-shaped plate was 2E+05 cell/well (being added in 50 μL/well); and incubation was performed in dark on ice for 30 min. Centrifugation (300 g/5 min) was performed; supernatant was discarded; 200 μL of the FCM buffer was added for washing once; centrifugation (300 g/5 min) was performed; and the supernatant was discarded. Secondary antibodies (PE anti-human IgG Fc, 1:500 dilution) were added to the 96-well V-shaped plate (in 100 μL/well); and incubation was performed in dark on ice for 30 min. Centrifugation (300 g/5 min) was performed; supernatant was discarded; 200 μL of the FCM buffer was added for washing once; centrifugation (300 g/5 min) was performed; and the supernatant was discarded. 100 μL of the 1×PBS was added for resuspending, and on-machine detection was performed.

[3] = target: T4, full-length human TIGIT on cells (human, UniProt Q495A1 22-244); experiment: FACS blocking: antibody on CHO-hTIGIT cells, then hPVR-hFc, PE anti-human IgG Fc; blocked ligand hPVR-hFc
T4 construct: whole, on cells; The same protein is used for CHO-hTIGIT, PBMC and NK92-hTIGIT; the cells are named under assay; also called CHO-hTIGIT; hTIGIT
T4 sequence (looked up): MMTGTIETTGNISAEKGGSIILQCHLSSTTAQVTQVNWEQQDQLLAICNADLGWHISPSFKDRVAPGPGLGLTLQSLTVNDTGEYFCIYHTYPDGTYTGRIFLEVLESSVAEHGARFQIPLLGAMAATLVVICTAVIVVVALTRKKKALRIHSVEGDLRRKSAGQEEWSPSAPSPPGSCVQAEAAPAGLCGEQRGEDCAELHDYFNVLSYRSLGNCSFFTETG
Experimental: The CHO-engineered cells CHO-hTIGIT cells recombinantly expressing full-length human TIGIT were counted, and centrifugated at 300 g for 5 min, resuspended with an FCM buffer, and cell density was adjusted to 4E+06 cell/mL for later use. […] According to an experimental design, in each well, 50 μL of the antibody and 50 μL of the cell (the volume of each cell added into a 96-well V-shaped plate being 2E+05 cell/well) were respectively added in the 96-well V-shaped plate; and incubation was performed in dark on ice for 30 min. The ligand protein was added to the 96-well V-shaped plate (in 50 μL/well); and incubation was performed in dark on ice for 30 min. Centrifugation (300 g/5 min) was performed; supernatant was discarded; 200 μL of the FCM buffer was added for washing once; centrifugation (300 g/5 min) was performed; and the supernatant was discarded. Secondary antibodies (PE anti-human IgG Fc, 1:500 dilution) were added to the 96-well V-shaped plate (in 100 μL/well); and incubation was performed in dark on ice for 30 min. Centrifugation (300 g/5 min) was performed; supernatant was discarded; 200 μL of the FCM buffer was added for washing once; centrifugation (300 g/5 min) was performed; and the supernatant was discarded. 100 μL of the 1×PBS was added for resuspending, and on-machine detection was performed.

T1 sequence (A0A7N9I9V4 entry or part of it): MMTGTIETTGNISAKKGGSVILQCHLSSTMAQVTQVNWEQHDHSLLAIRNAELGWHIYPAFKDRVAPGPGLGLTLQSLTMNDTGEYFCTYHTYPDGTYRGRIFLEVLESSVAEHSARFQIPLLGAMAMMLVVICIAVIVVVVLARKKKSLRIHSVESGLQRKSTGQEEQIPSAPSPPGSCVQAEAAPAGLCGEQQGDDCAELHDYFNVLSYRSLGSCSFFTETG

B1: Tigit-5 mouse monoclonal antibody (antibody, V domains shown)
VH: QVQLQQPGAELVRPGASVKLSCKASGYSFTSYWMNWVKQRPGQGLEWIGMIRPSDSETRLNQMFKDKATLTVDKSSSTAYMQLSSPTSDDSAVYYCAGIHDYGHGAYWGQGTLVTVSA
VL: DIQMIQSPASLSVSVGETVTITCRASENIYSNLAWYQQKQGKSPQLLVYAASHLPDGVPSRFSGSGSGTQYSLKINSLQSEDFGSYYCQHFWGTPRTFGGGTKLEIKR
notes: Mouse monoclonal antibody from hybridoma
EC50 [1]: 0.426 nM
epitope binning signal (name and unit not given) [2]: 0.0443
IC50 (read off the curve) (hTIGIT-hFc): ~1 nM
IC50 (read off the curve) [3]: ~0.3 nM

B2: 3Tigit-12 mouse monoclonal antibody (antibody, V domains shown)
VH: QVQLQQSGAELVRPGTSVKMSCKAAGYTFTNYWIGWVKQRPGHGLEWIGDIYPGGGYTNYDEKFKGKATLTADTSSRTAYMQLSSLTSEDSAIYHCVNGGYGSTYGYFDVWGAGTTVTVSS
VL: DIVMSQSPSSLPVSVGEKVTMSCKSSQSLLFSSDQKNYLAWYQQKPGQSPKLLIYWASTRESGVPDRLTGSGSGTDFTLTISSVKAEDLAVYYCQQYHKYPFTFGGGTKLEIKR
notes: as for B1
EC50 [1]: 0.354 nM
epitope binning signal (name and unit not given) [2]: 0.01

B3: 3Tigit-16 mouse monoclonal antibody (antibody, V domains shown)
VH: EVQLQQSGPELVKPGASVKMSCKASGFTFTDYFMDWVKQSRGASFEWIGRLNPNNGRTSYNQKFKGKATLTVDKSSSTAYMELNSLTSEDSAVYYCARGDLGRWYFDVWGAGTTVTVSS
VL: QIVLTQSPAIMSASPGEKVTMTCSASSSVSYMHWYQQKSGTSPKRWIYDTSKLASGVPTRFSGSGSGTSYSLTISSMEAEDAASYFCQQWSSNSLTFGAGTKLELKR
notes: as for B1
EC50 [1]: 0.758 nM
epitope binning signal (name and unit not given) [2]: 0.008
IC50 (read off the curve) (hTIGIT-hFc): ~1 nM
IC50 (read off the curve) [3]: ~0.3 nM

B4: 3Tigit-29 mouse monoclonal antibody (antibody, V domains shown)
VH: EVQLQQSGPELVKPGASVKISCKASGYTFTDYNMHWVKQSLGKSLEWIGYVNSFNGNTGYSQKFKSKVTLTVDRSSRTAYMDLRSLTSEDSAVFYCARSSRGGFAYWGQGTLVTVSA
VL: QIVLTQSPAIMSASPGEKVTMTCSASSSVSYMHWYQQKSGTSPKRWIYDTSKLASGVPARFSGSVSGTSYSLTISSMEAEDAATYYCQQWSSNSLTFGAGTKLELKR
notes: as for B1
EC50 [1]: 0.506 nM
epitope binning signal (name and unit not given) [2]: -0.0018
IC50 (read off the curve) (hTIGIT-hFc): ~1 nM
IC50 (read off the curve) [3]: ~0.3 nM
